These results are taken from patent publication US20250179205A1 (Hoffmann-La Roche, published 2025).

The target in test [1] is T1, His-tagged human dimeric FAP (recombinant FAP_ECD) (human, UniProt Q12884 27-760).
T1 construct: also called hu FAP ectodomain + poly-lys-tag + his6-tag
Nature of the test: SPR (Biacore T200), His-tagged dimeric huFAP ECD captured by anti-His, antibody as analyte, 1:1 fit (avidity). As for the experimental part:
The capacity of the bispecific constructs to bind human FAP was assessed by surface plasmon resonance (SPR). All SPR experiments were performed on a BIACORE® T200 (BIACORE®) at 25° C. with HBS-EP as running buffer (0.01 M HEPES pH 7.4, 0.15 M NaCl, 3 mM EDTA, 0.005% Surfactant P20, (BIACORE®).
His-tagged human dimeric FAP (recombinant FAP_ECD) was captured on a CM5 chip (GE Healthcare) immobilized with anti-His antibody (Qiagen Cat. No. 34660) by injection of 500 nM huFAP for 60 s at a flow rate of 10 uL/min, 10 nM murine FAP for 20 s at a flow rate of 20 uL/min and 10 nM cynoFAP for 20 s at a flow rate of 20 uL/min. Immobilization levels for the anti-His antibody of up to 18000 resonance units (RU) were used. Following the capture step, the bispecific antibodies as well as control molecules were immediately passed over the chip surface at a concentration ranging from 0.78-100 nM with a flow rate of […] for 280 s and a dissociation phase of 180 s. Bulk refractive index differences were corrected for by subtracting the response obtained in a reference flow cell, where no FAP was immobilized. Avidity was determined using the Langmuir 1:1 curve fitting. For bivalent binding the same 1:1 fitting was used leading to an apparent KD value.
For orientation: In SPR one partner is held on a chip, and binding of the other changes the refractive index at the surface.

The target in test [2] is T2, human fibroblast activation protein (huFAP) (human, UniProt Q12884 1-760).
T2 construct: expressed on transfected NIH/3T3-huFAP clone 19 cells; also called human FAP
Nature of the test: flow cytometry, NIH/3T3-huFAP clone 19 cells, PE anti-human Fc F(ab')2. As for the experimental part: NIH/3T3-huFAP clone 19 and NIH/3T3-mFAP clone 26 were generated by the transfection of the mouse embryonic fibroblast NIH/3T3 cell line (ATCC CRL-1658) with the expression vector pETR4921 to express under 1.5 μg/mL Puromycin selection huFAP or mFAP, respectively.
NIH/3T3-huFAP, NIH/3T3-mFAP or NIH/3T3-wt cells were cultured with 1× Dulbecco's Modified Eagle's Medium (DMEM) (Gibco, Cat. No. 42430-025) supplemented with 10% Fetal Bovine Serum (FBS) (life technologies, Cat. No. 16140, Lot No. 1797306A). For the NIH/3T3-huFAP and NIH/3T3-mFAP cells 1.5 μg/mL Puromycin (Gibco, Cat. No. A11138-03) was added to the medium for selection of FAP-expressing cells. NIH/3T3 cells were removed from the plate by using enzyme-free Cell Dissociation Buffer (Gibco, Cat. No. 13151014). 0.3×10⁵ NIH/3T3-huFAP clone 19, NIH/3T3-mFAP clone 26 or NIH/3T3-wt were added in 200 μl of 1×DMEM 10% FBS to each well of a round-bottom 96-well plate (Greiner Bio-One, CELLSTAR®, Cat. No. 650185). Plates were centrifuged 5 minutes at 1700 rpm and supernatants were flicked off. Cells were washed once with 200 μL of 4° C. cold FACS buffer (eBioscience, Cat. No. 00-4222-26). All samples were resuspended in 50 μL/well of 4° C. cold FACS buffer containing the bispecific antigen binding molecules (primary antibody) or isotype control antibody DP47 at the indicated range of concentrations (in duplicates) and incubated for 120 minutes at 4° C. Afterwards the cells were washed three times with 200 μL 4° C. cold FACS buffer. Cells were further stained with 25 μL/well of 4° C. cold secondary antibody solution (1:50 dilution of secondary antibody) containing R-Phycoerythrin (PE) conjugated AffiniPure F(ab′)₂ Fragment Goat Anti-Human IgG, Fcγ Fragment Specific (Jackson ImmunoResearch, Cat. No. 109-116-098) and incubated for 60 minutes at 4° C. in the dark. Cells were washed with 200 μl FACS buffer and resuspended in 85 μL/well FACS-buffer containing 0.2 μg/mL DAPI (Roche, Cat. No. 10236276001) and acquired the same day using 5-laser LSR-Fortessa (BD Bioscience with DIVA software). Data analysis was performed using the FlowJo version 10 software (FlowJo LLC).
For orientation: Flow cytometry measures light scatter and fluorescence of single cells or particles in a stream.

For test [3], the target named is T3, mouse fibroblast activation protein (mFAP) (mouse, UniProt P97321 1-761).
T3 construct: expressed on transfected NIH/3T3-mFAP clone 26 cells; also called murine FAP; mouse FAP
Nature of the test: flow cytometry on NIH/3T3-mFAP cells (3T3_mFAP), PE-labelled anti-human IgG Fcgamma F(ab')2 secondary, MFI baseline corrected.

Test [4] concerns the target T1, His-tagged human dimeric FAP …. Nature of the test: method not stated; SPR as in Example 5.3.2 presumed.

T3 sequence (P97321 whole entry): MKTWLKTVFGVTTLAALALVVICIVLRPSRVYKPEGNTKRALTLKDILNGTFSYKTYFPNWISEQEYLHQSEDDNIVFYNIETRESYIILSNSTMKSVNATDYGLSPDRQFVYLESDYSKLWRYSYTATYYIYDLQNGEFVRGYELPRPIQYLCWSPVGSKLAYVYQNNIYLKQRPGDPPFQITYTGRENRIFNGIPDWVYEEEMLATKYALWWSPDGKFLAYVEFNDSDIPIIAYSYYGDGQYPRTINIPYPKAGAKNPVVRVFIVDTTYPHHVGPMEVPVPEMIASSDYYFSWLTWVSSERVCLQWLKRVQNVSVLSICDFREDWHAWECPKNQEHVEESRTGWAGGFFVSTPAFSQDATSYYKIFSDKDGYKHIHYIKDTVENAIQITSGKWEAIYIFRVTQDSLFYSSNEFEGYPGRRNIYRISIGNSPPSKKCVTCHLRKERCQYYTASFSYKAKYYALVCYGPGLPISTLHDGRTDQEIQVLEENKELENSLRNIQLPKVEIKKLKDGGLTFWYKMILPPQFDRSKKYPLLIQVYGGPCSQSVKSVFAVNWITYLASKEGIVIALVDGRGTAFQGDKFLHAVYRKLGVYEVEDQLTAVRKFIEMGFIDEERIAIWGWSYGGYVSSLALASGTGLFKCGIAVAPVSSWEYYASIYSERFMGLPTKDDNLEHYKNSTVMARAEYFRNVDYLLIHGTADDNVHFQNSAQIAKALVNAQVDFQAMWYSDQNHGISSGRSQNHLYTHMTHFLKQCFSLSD

B1: P1AE0408 CD40 × FAP (28H1) (2 + 1) head to tail (bispecific antibody, human IgG1, kappa, L234A L235A)
heavy 1: not shown
heavy 2: EVQLVESGGGLVQPGGSLRLSCAASGYSFTGYYIHWVRQAPGKGLEWVARVIPNAGGTSYNQKFKGRFTLSVDNSKNTAYLQMNSLRAEDTAVYYCAREGIYWWGQGTLVTVSSASTKGPSVFPLAPSSKSTSGGTAALGCLVEDYFPEPVTVSWNSGALTSGVHTFPAVLQSSGLYSLSSVVTVPSSSLGTQTYICNVNHKPSNTKVDEKVEPKSCDKTHTCPPCPAPEAAGGPSVFLFPPKPKDTLMISRTPEVTCVVVDVSHEDPEVKFNWYVDGVEVHNAKTKPREEQYNSTYRVVSVLTVLHQDWLNGKEYKCKVSNKALGAPIEKTISKAKGQPREPQVCTLPPSRDELTKNQVSLSCAVKGFYPSDIAVEWESNGQPENNYKTTPPVLDSDGSFFLVSKLTVDKSRWQQGNVFSCSVMHEALHNRFTQKSLSLSPGK
light 1: DIQMTQSPSSLSASVGDRVTITCRSSQSLVHSNGNTFLHWYQQKPGKAPKLLIYTVSNRFSGVPSRFSGSGSGTDFTLTISSLQPEDFATYFCSQTTHVPWTFGQGTKVEIKRTVAAPSVFIFPPSDRKLKSGTASVVCLLNNFYPREAKVQWKVDNALQSGNSQESVTEQDSKDSTYSLSSTLTLSKADYEKHKVYACEVTHQGLSSPVTKSFNRGEC
light 2: EVQLLESGGGLVQPGGSLRLSCAASGFTFSSHAMSWVRQAPGKGLEWVSAIWASGEQYYADSVKGRFTISRDNSKNTLYLQMNSLRAEDTAVYYCAKGWLGNFDYWGQGTLVTVSSASVAAPSVFIFPPSDEQLKSGTASVVCLLNNFYPREAKVQWKVDNALQSGNSQESVTEQDSKDSTYSLSSTLTLSKADYEKHKVYACEVTHQGLSSPVTKSFNRGEC
notes: a CD40 Fab fused to the N-terminus of the FAP crossFab on the knob chain; also called CD40 × FAP 2 + 1 head-to-tail; 2 + 1 head-to-tail format
For orientation: koff means a measure of how fast the partners let go of each other. A word on the kon: it is a measure of how fast the partners come together. As a reminder, the EC50 is the midpoint of the concentration-response curve. Usually EC50 (read off the curve) stands for the concentration needed to bring the measured effect to its halfway point. Take B1: in test [1], the Kd turned out to be 6 nM, the dissociation rate constant (koff) turned out to be 0.00174 s⁻¹ and the kon turned out to be 291000 M⁻¹ s⁻¹. In test [2], this molecule returned an EC50 of 7.99 nM. Also, the “EC50 (read off the curve)” value in test [3] was about 8 nM. Besides, the Kd in test [4] came to 1.5 nM.
